Measurements published in article PMC10467427 (2023).
Where two headings read alike, the source gives them in different places.

Key:
[1] = molecular target: T1, GST-fused Pins^TPR domains (Drosophila (S2 cell cDNA library), UniProt Q9VB22 1-658)
T1 chain: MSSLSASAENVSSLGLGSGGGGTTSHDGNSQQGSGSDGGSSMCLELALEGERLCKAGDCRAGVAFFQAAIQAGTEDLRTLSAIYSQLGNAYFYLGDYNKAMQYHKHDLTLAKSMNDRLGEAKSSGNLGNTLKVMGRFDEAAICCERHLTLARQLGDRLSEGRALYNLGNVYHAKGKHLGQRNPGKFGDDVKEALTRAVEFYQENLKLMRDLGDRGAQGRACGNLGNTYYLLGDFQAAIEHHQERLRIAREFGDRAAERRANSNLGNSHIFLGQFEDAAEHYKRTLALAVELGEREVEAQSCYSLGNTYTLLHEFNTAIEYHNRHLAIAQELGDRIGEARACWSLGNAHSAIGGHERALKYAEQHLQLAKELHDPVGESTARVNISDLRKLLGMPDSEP

MBP:Hts^FL [2] = molecular target: T2, MBP:Hts^FL (Drosophila (S2 cell cDNA library))
T2 chain: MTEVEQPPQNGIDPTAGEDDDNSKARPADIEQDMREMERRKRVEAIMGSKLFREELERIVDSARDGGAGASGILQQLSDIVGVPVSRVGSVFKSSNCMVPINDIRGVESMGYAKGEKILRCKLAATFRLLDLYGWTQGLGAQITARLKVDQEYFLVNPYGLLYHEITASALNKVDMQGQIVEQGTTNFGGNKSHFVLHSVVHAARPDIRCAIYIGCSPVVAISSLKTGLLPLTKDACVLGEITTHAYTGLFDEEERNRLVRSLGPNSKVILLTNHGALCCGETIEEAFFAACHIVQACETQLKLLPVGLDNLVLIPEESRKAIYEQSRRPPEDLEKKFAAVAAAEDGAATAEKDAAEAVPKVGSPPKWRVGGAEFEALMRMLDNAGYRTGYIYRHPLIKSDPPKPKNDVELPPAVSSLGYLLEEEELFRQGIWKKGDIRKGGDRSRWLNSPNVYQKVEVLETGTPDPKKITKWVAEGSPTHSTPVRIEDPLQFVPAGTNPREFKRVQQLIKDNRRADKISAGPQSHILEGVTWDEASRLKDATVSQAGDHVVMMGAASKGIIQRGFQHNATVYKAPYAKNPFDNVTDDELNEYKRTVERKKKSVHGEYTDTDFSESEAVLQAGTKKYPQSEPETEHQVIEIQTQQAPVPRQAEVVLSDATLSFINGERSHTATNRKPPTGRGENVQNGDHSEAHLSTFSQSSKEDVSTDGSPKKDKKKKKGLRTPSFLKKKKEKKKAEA

MBP:Hts^FL [3] = molecular target: T2, MBP:Hts^FL
MBP:Hts^ALDO = molecular target: T3, MBP:Hts^ALDO (Drosophila (S2 cell cDNA library))
T3 chain: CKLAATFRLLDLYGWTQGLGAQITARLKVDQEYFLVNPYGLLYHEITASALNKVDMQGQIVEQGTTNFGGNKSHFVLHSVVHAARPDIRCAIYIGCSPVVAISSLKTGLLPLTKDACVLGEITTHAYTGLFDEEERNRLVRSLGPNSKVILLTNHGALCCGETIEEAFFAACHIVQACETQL

MBP:Hts^1-319 = molecular target: T4, MBP:Hts^1-319 (Drosophila (S2 cell cDNA library))
T4 chain: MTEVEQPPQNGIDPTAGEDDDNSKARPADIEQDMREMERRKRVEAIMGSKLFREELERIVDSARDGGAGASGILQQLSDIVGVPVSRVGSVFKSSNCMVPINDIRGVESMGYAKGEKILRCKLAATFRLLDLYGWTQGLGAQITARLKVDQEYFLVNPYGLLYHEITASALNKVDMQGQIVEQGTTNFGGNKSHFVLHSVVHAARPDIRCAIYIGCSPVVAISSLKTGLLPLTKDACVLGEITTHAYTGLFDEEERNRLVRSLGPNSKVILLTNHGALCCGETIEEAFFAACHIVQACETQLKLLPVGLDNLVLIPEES

B1: Mud^CC-PBD (domain or fragment)
chain: KLALDCKILQAKYRDAKDEIKRCEKKIKDQRLEMEGKLEKMKNKMRSLYTAEVTRMKEKQERDAAKSASELEALTAQNAKYEEHTRKLSNQIVRLNEKILEQQKQHAIISTNLRHLQMQPISETKPSSTTLTVSSSSSAPNDDWQPFKRPNVPSSNLAMEDEEGEVFNNTYLTDLKLGRVPADMTAEELIYRNSLQPPHLKST
modifications: 6xHis tag removed by TEV. Limits not printed: start set just before L1788 (N-terminal end of the CC), end at the conventional PBD boundary (about 1982). Needs the NB isoform that includes the CC and PBD exons. Three copies follow from the predicted parallel trimer.
**Q.** Which results are given for B1?
**A.** Kd [1]: 186 nM; Kd (MBP:Hts^FL [2]): 1620 nM; Kd (MBP:Hts^FL [3]): 620 nM; Kd (MBP:Hts^ALDO): 760 nM; Kd (MBP:Hts^1-319): 550 nM

B2: Mud^CC-PBD L1788E/I1878D (ED) mutant (domain or fragment)
chain: KLALDCKIEQAKYRDAKDEIKRCEKKIKDQRLEMEGKLEKMKNKMRSLYTAEVTRMKEKQERDAAKSASELEALTAQNAKYEEHTRKLSNQIVRLNEKDLEQQKQHAIISTNLRHLQMQPISETKPSSTTLTVSSSSSAPNDDWQPFKRPNVPSSNLAMEDEEGEVFNNTYLTDLKLGRVPADMTAEELIYRNSLQPPHLKST
modifications: 6xHis tag removed by TEV. The mutations disrupt the coiled-coil trimer. Limits not given, set by convention as for the wild type.
**Q.** B2 was tested. Which Kd [1] did it give?
**A.** The Kd was 189 nM.
